Source: US8859723 (dated 2014)

T1: hDMX (In-house, 40 kD) (human, UniProt O15151 1-120)
T1 chain: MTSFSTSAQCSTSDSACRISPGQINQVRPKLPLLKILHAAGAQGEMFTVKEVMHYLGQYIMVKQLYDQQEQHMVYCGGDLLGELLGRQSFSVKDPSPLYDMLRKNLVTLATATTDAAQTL

B1: GST-hDMX (other)
chain: T1 chain
B2: GST-hDM2 (other)
chain: MCNTNMSVPTDGAVTTSQIPASEQETLVRPKPLLLKLLKSVGAQKDTYTMKEVLFYLGQYIMTKRLYDEKQQHIVYCSNDLLGDLFGVPSFSVKEHRKIYTMIYRNLVVVNQQESSDSGTSVSEN
B3: SP-508 (peptide)
chain: ETFAAYWAQLAS
modifications: not fully specified
B4: SP-681 (peptide)
chain: LTFAAYWVQLAS
modifications: not fully specified
B5: SP-586 (peptide)
chain: LTFAAYWAQFAS
modifications: not fully specified
B6: SP-604 (peptide)
chain: LTFAFYWAQLAA
modifications: not fully specified
B7: SP-696 (peptide)
chain: WTFALYWSQLAS
modifications: not fully specified
B8: SP-698 (peptide)
chain: LTFAAYWSQLAA
modifications: not fully specified
B9: SP-671 (peptide)
chain: LTFAEYWAQLAA
modifications: not fully specified
B10: SP-709 (peptide)
chain: ETFAAYWAQLAA
modifications: not fully specified
B11: SP-673 (peptide)
chain: LTFAAYWAALAS
modifications: not fully specified
B12: SP-623 (peptide)
chain: LTFAVYWAQLAA
modifications: not fully specified
B13: SP-684 (peptide)
chain: ITFAFYWAQLAS
modifications: not fully specified

Molecular target: SP-44
Test: Affinity selection MS

| Kd [nM] | Binder |
| --- | --- |
| 180 | B1 |
| 25 | B2 |

Molecular target: T1, hDMX (In-house, 40 kD)
Test: FP competition

| IC50 [nM] | Binder |
| --- | --- |
| 88.8 | B3 |

Molecular target: T2, hDM2 (In-house, 41 kD) (human, UniProt Q00987 1-125)
Test: FP competition

| IC50 [nM] | Binder |
| --- | --- |
| 22.8 | B3 |

Molecular target: SP-5
Test: Affinity selection MS

| Kd [nM] | Binder |
| --- | --- |
| 90 | B1 |
| 25 | B2 |

Molecular target: T1, hDMX (In-house, 40 kD)
Test: FP competition
Remark: another data set of the same source

| IC50 [nM] | Binder |
| --- | --- |
| 395 | B4 |
| 673 | B5 |
| 310 | B6 |
| 379 | B7 |
| 157 | B8 |

Molecular target: T2, hDM2 (In-house, 41 kD)
Test: FP competition
Remark: another data set of the same source

| IC50 [nM] | Binder |
| --- | --- |
| 118 | B4 |
| 63.6 | B9 |
| 103 | B10 |
| 137 | B11 |
| 68.3 | B12 |
| 104 | B13 |
| 82.2 | B8 |
